Earlier results, collected in publication PMC5135002.

Target: CYLD USP (Homo sapiens) (UniProt Q9NQC7)
Sequence of UniProt Q9NQC7 (Q9NQC7 589-953): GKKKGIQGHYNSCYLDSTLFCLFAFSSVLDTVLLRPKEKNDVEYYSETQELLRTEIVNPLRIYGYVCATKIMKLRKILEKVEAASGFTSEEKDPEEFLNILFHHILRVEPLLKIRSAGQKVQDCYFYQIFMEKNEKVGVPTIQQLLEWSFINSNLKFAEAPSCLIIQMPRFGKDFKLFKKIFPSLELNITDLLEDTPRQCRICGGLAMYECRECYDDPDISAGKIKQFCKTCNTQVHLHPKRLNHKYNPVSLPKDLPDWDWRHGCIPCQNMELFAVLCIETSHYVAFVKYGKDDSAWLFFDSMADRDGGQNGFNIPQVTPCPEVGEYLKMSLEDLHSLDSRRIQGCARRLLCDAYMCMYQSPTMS

- Kd: 0.01 µM
Substance: SPATA2 PUB (from UniProt Q9UM82)
